This sample holds only a part of the variants without activity.
B1: TPR 5TU (parent)
chain: GGAUCUUCUCGAUCUAACAAAAAAGACAAAUCUGCCACAAAGCUUGAGAGCAUCUUCGGAUGCAGAGGCGGCAGCCUUCGGUGGCGCGAUAGCGCCAACGUUCUCAACUAUGACACGCAAAACGCGUGCUCCGUUGAAUGGAGUUUAUCAUG

Variants of: B1
Assay: polymerase ribozyme fitness, log enrichment relative to wild type (log ratio); higher = more active; in vitro selection for triplet polymerase activity
Summary of the method: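 Fitness measures genotype enrichment against wild-type enrichment on a logarithmic scale, with inverse-variance-weighted averaging of replicates. The logarithm is base 2, and genotypes were kept only with ≥10 input reads and ≥1 read per output in Illumina sequencing. The sequenced libraries came from one triplicate in vitro selection round, including frozen incubation at −7 °C, of PCR-built, transcribed mutant libraries of each subunit of a heterodimeric triplet polymerase ribozyme.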

Variant | polymerase ribozyme fitness (log ratio)
C35A G83U | ≤ -4.2
C35A G83C | -3.93
G34A A49C C95U G140U G141A | ≤ -4.2
C35U G59A G83U A98C G128C | -3.94
C35U A49G G50A U77G C96U G143C A150G U151A | ≤ -4.2
C35U C149U | -1.57
C35G A39C U82C C116U C125G G133A | ≤ -4.2
C35U U55A G84U A147C | -2.79
G34U A41G A47C C116U | ≤ -4.2
C35U A52C U55A C93U C149A | ≤ -4.2
C35A C93G A98C C99U G141C | ≤ -4.2
G34U C95U A107G A110G | -3.86
C35G U55A G94A U101G C131U | ≤ -4.2
C35A G42U G48A G68A A106C C116U A120U G141A | ≤ -4.2
C35G G141C | -3.66
C35U G81U U82G G88U G94U U139C C149A | ≤ -4.2
C35U G141A | 0.194
G34A G84A U134G | -2.82
G34U A40G C69U G80U C99U A107G U139G G140U U148C | ≤ -4.2
C35A A47C G86U | ≤ -4.2
C35U U61A A66C C69U | ≤ -4.2
C36A C75U G83A A89C C99G C105U C123A C125A | ≤ -4.2
C35U C69U A91G C118A | -3.8
C35U C95U A107C U109A A115U | ≤ -4.2

Variant | polymerase ribozyme fitness (log ratio)
C35U G59C G81A G83A A110G G133C | ≤ -4.2
C35U G94A C108A A150U | ≤ -4.2
C35U G124U | -1.25
C35U C75G U127C | ≤ -4.2
C35A A66G G70U C87G C96G A121U C149U | ≤ -4.2
G34U C96G | -2.91
C35U C99G A119C G141U | -1.83
C35U A52C C85U G117U | -2.29
C35U C95U C96G | -1.52
G34C U78C A91G U146A | ≤ -4.2
C35U C43G C93A C103G | ≤ -4.2
G34C | -1.49
G34U | -1.11
G34A | -0.292
C35G C54U A60U C85A | ≤ -4.2
G34U U77G C87A A113C | ≤ -4.2
C35A A66G C87U U127C | ≤ -4.2
C35U A41C U53A C75G C114U G136U | ≤ -4.2
C35A U90A U111C A137C | ≤ -4.2
C35U C54G C57G C69U U82A A91U G92A A113G | ≤ -4.2
C35A A64C A98U C99U G152U | ≤ -4.2
C35G C85G U134A G136A | ≤ -4.2
C36A A73G C96U A121C C131U | ≤ -4.2
G34U C36G G59C U148C | ≤ -4.2

Variant | polymerase ribozyme fitness (log ratio)
C35U A47C U56G A64U A106U G133U | ≤ -4.2
C35U C118U | -0.573
C36A A47C G59U | ≤ -4.2
C36A A40C G83C A106G U144A | ≤ -4.2
G34C U139G | -3.21
C35U G58C G71A C93G | -3.09
C35U G50U G59C A60U C85A G94C G141A | ≤ -4.2
C35U A47C G80U C87U | -3.9
C36A A52C C85G A120G A122U U148A | -3.85
C35G G62A G68A C69G G71C C72A A73G G74C A91C C114U C132U | ≤ -4.2
G34A A40U U45C C69A C76A C87U G94A A106G A122U G124C U151A | ≤ -4.2
C36A G62C C63U | ≤ -4.2
C35U C54A G84A U146C | -1
C35G G62C G67C C85G C131A A147U | ≤ -4.2
G34A C87U A89U G100A C103G A107U G124C U135G G140A G141C | ≤ -4.2
C36A A39C U56C C87U U144G | ≤ -4.2
C35A G65U G83A G140U | ≤ -4.2
G34U G58A G59A C85U U101G A150G | ≤ -4.2
G34A C87A G141A | ≤ -4.2
G34C C36A A91C C96U C123G G140A | -4.15
C35U C54G A66U C79A G80A G83C G84A C96U U101G U148C | ≤ -4.2
G34A C79U A107C C108G C116G | ≤ -4.2
G34U C51U G59U G88A G141U A142G U146G A147U | ≤ -4.2
C35A A39C A91U A121U | ≤ -4.2

Variant | polymerase ribozyme fitness (log ratio)
C35G U78G C99A | ≤ -4.2
G34C G59A G112U A115U C125U | ≤ -4.2
C36A G46A C96U U148A | ≤ -4.2
G34U U82G C96G A106G U145C | -3.75
G34U U56A | -1.7
C36A C96U U111G | ≤ -4.2
G34A U102G | ≤ -4.2
G34U A39U U53A A64U C116U U146G | ≤ -4.2
C35U C76U C99U | -1.5
G34A C43A G92U C118U | ≤ -4.2
C35U G62A G83U G86C C125G A142U | ≤ -4.2
C35U C129U | -0.479
C35G A47C C69G U77G U82C C103G G128U U130G U151C | ≤ -4.2
C35G A115G | -3.92
C35U C93G G141A | -3.56
C35U G92A A122G | -3.92
G34A U77G C87A A91C C108U G133A | ≤ -4.2
C36A G48U C54G C57A C72A A91C | ≤ -4.2
C36A U45A C87G A91G | ≤ -4.2
C36A U55A A64U C96A C118G | ≤ -4.2
C35U U55A C96U | -0.218
G34A G50C G92U | ≤ -4.2
G34A C75U | -3.68
C35A C57U C93G U134A U139A | ≤ -4.2

Variant | polymerase ribozyme fitness (log ratio)
G34U A47U | -2.01
C35U G140C | -4.13
C36A G59A U144G | -3.49
G34A C85U U101G | -3.5
C36A U56A | -3.62
C36A A66C | ≤ -4.2
C36A C85U | -3.7
C35U G46U C96U | -1.23
C35U U45A G83C C85G A97G G141C | ≤ -4.2
G34A G50A G68U G71A C76A C85A C125U | ≤ -4.2
C35U C38G G86A G126A G136U | ≤ -4.2
C35G G48U G70A G92C C96G U146A | ≤ -4.2
C35U G48A U78C C96G G117C | ≤ -4.2
C35U G50A C87G G124A | -3.99
C35U C51U U55C C85A U101C C103A U144A | ≤ -4.2
C35U A115U | -1.54
C35U G88A | -4.1
C36A G84U C114A A120U G143U | -4.19
G34U G141C | -2.78
C36A C87U G140C | ≤ -4.2
C35G A89C C96G | -4.02
C36A C75A C87G A106U C149G | ≤ -4.2
C35A A52C C79G C96U U127C C149A | ≤ -4.2
C36A G50C U53A U56A C93U A115U | ≤ -4.2

Variant | polymerase ribozyme fitness (log ratio)
C35G C69A C76A C118G U127C | ≤ -4.2
C35U C85A | -1.42
C35U C85U | -0.375
G34C A49C A52G U61G C87U C95A | -4.12
C35A A41C G59C C87U G100C C105G A121C | ≤ -4.2
C35G G83C A91C C108U G136U | ≤ -4.2
C35G G68A A91U U144C | ≤ -4.2
G34A G117U A137C A142U | ≤ -4.2
C35A G126A | -3.51
C35U G58A A60C C93G C96U C105U C116U | ≤ -4.2
C35G C57U C85G U151A | ≤ -4.2
C35U C93A C103G | ≤ -4.2
C35U A73U G88U C108G | ≤ -4.2
C35U U127G | -4.01
C35U G50C C76A C79G C87G A142C G152U | ≤ -4.2
C35A G70A A89G G92A | ≤ -4.2
G34A C69A A106G A147C | -3.75
G34U G83U A115G U145G | ≤ -4.2
C36A C54G C57A G86A U139G | ≤ -4.2
C35G C76A | -4.13
C35G C76U | -3.99
C35A C87U | -4.03
C35A U144G U151A | ≤ -4.2
G34A G74U G94A C116G | ≤ -4.2

Variant | polymerase ribozyme fitness (log ratio)
C35U A73U C75G C76G U90C | ≤ -4.2
G34C A66G G86U A107C G141U | ≤ -4.2
C35G G68C C125A | -4.18
C35G G58C C125U A147C | ≤ -4.2
C35U A49C C79A C87A A119U | ≤ -4.2
C35A U90A C95U U102A | ≤ -4.2
C35G G42A U130G C131A | -4.12
C36A A66C G81A A91C C93U | ≤ -4.2
C35U A49G A97G A119C | -2.09
C36A U45C C95U C114U A119U | ≤ -4.2
G34A C57G G117A U144A | -3.39
C35A C76A C93A U148C | ≤ -4.2
G34A U111C A113C G124U G152U | ≤ -4.2
G34A G48C G59A U102G C114A G143U A147G | ≤ -4.2
C35G C54A U56A C79G C99U G126U G143U | ≤ -4.2
C35A U44A G70C C76U C103G U145G | ≤ -4.2
C35U G46A A119G A121U | -1.45
G34U A142C | -3.85
C35U A49C U53G C75G G92A A119U A120G G133U A138C | ≤ -4.2
C35U A41G C85U G141U | 1.25
C35G A60C | -3.99
G34U A40G C72U C96G | ≤ -4.2
C35U C95G | -1.22
